The supplement of paper PMC9112550, “Optimization of the antimicrobial peptide Bac7 by deep mutational scanning” (BMC Biology, 2022)

test system: Escherichia coli TOP10; test: shrunken log2 fold change of peptide-encoding DNA abundance (4.5 h post-induction vs induction); higher = less antimicrobial activity (less host growth inhibition); settings: time post-induction: 4.5 h; library: site-saturation at positions 5, 18, 19, 20
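Further: peptides expressed intracellularly from a pBAD plasmid library in pooled LB shake-flask culture, induced with 0.3% L-arabinose, DNA abundance read by NGS, three biological replicates, DESeq2 with apeglm shrinkage.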

Sequence | shrunken log2 fold change
RRIRIRPPRLPRPRPRPHFVPRP | -0.565
RRIRQRPPRLPRPRPRPKDDPRP | -0.0913
RRIRARPPRLPRPRPRPHSYPRP | 0.0128
RRIRCRPPRLPRPRPRPMCTPRP | -0.098
RRIRFRPPRLPRPRPRPRAYPRP | -0.23
RRIRNRPPRLPRPRPRPTMTPRP | 0.149
RRIRPRPPRLPRPRPRPMSMPRP | -0.11
RRIRERPPRLPRPRPRPNVEPRP | 0.0609
RRIRIRPPRLPRPRPRPRHMPRP | -0.12
RRIRYRPPRLPRPRPRPWSPPRP | -0.848
RRIRWRPPRLPRPRPRPFPGPRP | -0.0199
RRIRQRPPRLPRPRPRPGSGPRP | 0.135
RRIRCRPPRLPRPRPRPRTGPRP | 0.148
RRIRWRPPRLPRPRPRPLQTPRP | 0.957
RRIRPRPPRLPRPRPRPVMDPRP | 0.0311
RRIRERPPRLPRPRPRPVCYPRP | -0.266
RRIRHRPPRLPRPRPRPALWPRP | 0.701
RRIRHRPPRLPRPRPRPAYTPRP | -0.482
RRIRTRPPRLPRPRPRPEWPPRP | 0.351
RRIRWRPPRLPRPRPRPLCPPRP | 0.0748
RRIRKRPPRLPRPRPRPDFNPRP | 0.0068
RRIRIRPPRLPRPRPRPHSWPRP | -0.327
RRIRSRPPRLPRPRPRPQMSPRP | -0.0374
RRIRPRPPRLPRPRPRPPCPPRP | 0.294
RRIRARPPRLPRPRPRPEDRPRP | 0.381

Sequence | shrunken log2 fold change
RRIRYRPPRLPRPRPRPYEAPRP | -0.336
RRIRDRPPRLPRPRPRPVMVPRP | 0.111
RRIRERPPRLPRPRPRPIYDPRP | -0.137
RRIRWRPPRLPRPRPRPRMSPRP | 0.139
RRIRSRPPRLPRPRPRPGALPRP | 0.324
RRIRRRPPRLPRPRPRPTVIPRP | -0.168
RRIRERPPRLPRPRPRPGIKPRP | -0.587
RRIRNRPPRLPRPRPRPTGKPRP | -0.0851
RRIRERPPRLPRPRPRPGDNPRP | -0.0779
RRIRTRPPRLPRPRPRPWPAPRP | 0.61
RRIRIRPPRLPRPRPRPIQLPRP | -0.058
RRIRHRPPRLPRPRPRPWCKPRP | -0.111
RRIRDRPPRLPRPRPRPELTPRP | 0.167
RRIRNRPPRLPRPRPRPWPNPRP | -0.063
RRIRPRPPRLPRPRPRPVRPPRP | 0.854
RRIRNRPPRLPRPRPRPCLKPRP | -0.315
RRIRMRPPRLPRPRPRPDCPPRP | 0.0739
RRIRCRPPRLPRPRPRPRCSPRP | -0.0164
RRIRLRPPRLPRPRPRPLYPPRP | -0.12
RRIRCRPPRLPRPRPRPNAKPRP | 0.0347
RRIRMRPPRLPRPRPRPPDRPRP | 1.26
RRIRSRPPRLPRPRPRPLSYPRP | -0.464
RRIRGRPPRLPRPRPRPPYKPRP | 0.18
RRIRDRPPRLPRPRPRPAYQPRP | -0.381
RRIRKRPPRLPRPRPRPVWCPRP | -0.0673

Sequence | shrunken log2 fold change
RRIRTRPPRLPRPRPRPVPGPRP | 0.151
RRIRPRPPRLPRPRPRPFGQPRP | -0.34
RRIRSRPPRLPRPRPRPGIQPRP | 0.0642
RRIRHRPPRLPRPRPRPFWEPRP | -0.218
RRIRTRPPRLPRPRPRPMKFPRP | -0.116
RRIRQRPPRLPRPRPRPNYRPRP | 0.0444
RRIRPRPPRLPRPRPRPTSWPRP | 0.769
RRIRNRPPRLPRPRPRPAREPRP | 0.191
RRIRVRPPRLPRPRPRPFACPRP | -0.395
RRIRARPPRLPRPRPRPCISPRP | 0.0706
RRIRHRPPRLPRPRPRPILFPRP | -0.148
RRIRDRPPRLPRPRPRPLWYPRP | -0.421
RRIRRRPPRLPRPRPRPWQSPRP | -0.0153
RRIRDRPPRLPRPRPRPLCYPRP | 0.00826
RRIRNRPPRLPRPRPRPSMDPRP | 0.00334
RRIRIRPPRLPRPRPRPEKGPRP | -0.257
RRIRLRPPRLPRPRPRPLCGPRP | 0.161
RRIRYRPPRLPRPRPRPRHFPRP | -0.209
RRIRTRPPRLPRPRPRPHWAPRP | 0.0228
RRIRPRPPRLPRPRPRPPLHPRP | 0.21
RRIRIRPPRLPRPRPRPHKWPRP | -0.256
RRIRLRPPRLPRPRPRPRMLPRP | -0.0478
RRIRRRPPRLPRPRPRPTRPPRP | 1.02
RRIRPRPPRLPRPRPRPWHQPRP | 0.0649
RRIRERPPRLPRPRPRPCFDPRP | -0.144
